Measured values from patent US20130142802A1 (published 2013).

T1: FGFR2 IIIb-Fc (human)
T1 construct: also called FGFR2IIIb beta-ECD; FGFR2IIIb-hFc
T1 chain: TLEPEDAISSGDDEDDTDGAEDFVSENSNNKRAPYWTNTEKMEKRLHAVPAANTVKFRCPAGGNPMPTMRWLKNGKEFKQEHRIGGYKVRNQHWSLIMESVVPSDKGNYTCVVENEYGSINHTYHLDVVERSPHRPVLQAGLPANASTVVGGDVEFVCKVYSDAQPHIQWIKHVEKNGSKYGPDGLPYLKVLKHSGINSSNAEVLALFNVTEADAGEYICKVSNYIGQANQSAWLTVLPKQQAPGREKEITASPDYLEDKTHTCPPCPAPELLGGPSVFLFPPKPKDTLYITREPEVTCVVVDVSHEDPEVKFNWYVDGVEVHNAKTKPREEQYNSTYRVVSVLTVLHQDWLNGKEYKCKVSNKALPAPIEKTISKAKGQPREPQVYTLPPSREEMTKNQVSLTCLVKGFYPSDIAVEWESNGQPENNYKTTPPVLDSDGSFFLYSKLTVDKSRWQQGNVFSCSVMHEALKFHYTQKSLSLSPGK

T2: 128AA-mFc (128-amino acid loop-3 fragment of FGFR2IIIc fused to mouse Fc) (human)
T2 chain: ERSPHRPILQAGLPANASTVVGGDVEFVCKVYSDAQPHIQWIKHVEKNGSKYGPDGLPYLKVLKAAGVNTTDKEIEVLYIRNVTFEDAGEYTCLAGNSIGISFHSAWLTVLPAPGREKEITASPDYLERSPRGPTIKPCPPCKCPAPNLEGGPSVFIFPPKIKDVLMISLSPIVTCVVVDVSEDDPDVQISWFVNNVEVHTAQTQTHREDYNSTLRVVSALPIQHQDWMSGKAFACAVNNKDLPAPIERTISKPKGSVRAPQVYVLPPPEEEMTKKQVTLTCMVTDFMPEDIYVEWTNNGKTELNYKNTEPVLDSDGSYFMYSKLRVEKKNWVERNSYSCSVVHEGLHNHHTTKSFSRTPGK

T3: FGF8b (UniProt P55075-3 23-215)
T3 construct: Coated on ELISA plates; also called ligand protein FGF8b
T3 sequence (looked up): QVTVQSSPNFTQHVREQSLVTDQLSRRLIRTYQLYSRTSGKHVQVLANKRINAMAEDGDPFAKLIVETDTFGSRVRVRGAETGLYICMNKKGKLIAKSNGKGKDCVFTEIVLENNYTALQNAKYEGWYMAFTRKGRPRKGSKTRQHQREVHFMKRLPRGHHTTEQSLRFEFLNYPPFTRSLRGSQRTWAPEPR

T4: Flag-FGFR2-IIIb expressed on CHO cells (human, UniProt P21802 22-821)
T4 construct: whole, on cells; also called CHO-FGFR2-IIIb; FGFR2-IIIb-expressing CHO cells; not shown: Flag-tag at the N-terminus
T4 chain: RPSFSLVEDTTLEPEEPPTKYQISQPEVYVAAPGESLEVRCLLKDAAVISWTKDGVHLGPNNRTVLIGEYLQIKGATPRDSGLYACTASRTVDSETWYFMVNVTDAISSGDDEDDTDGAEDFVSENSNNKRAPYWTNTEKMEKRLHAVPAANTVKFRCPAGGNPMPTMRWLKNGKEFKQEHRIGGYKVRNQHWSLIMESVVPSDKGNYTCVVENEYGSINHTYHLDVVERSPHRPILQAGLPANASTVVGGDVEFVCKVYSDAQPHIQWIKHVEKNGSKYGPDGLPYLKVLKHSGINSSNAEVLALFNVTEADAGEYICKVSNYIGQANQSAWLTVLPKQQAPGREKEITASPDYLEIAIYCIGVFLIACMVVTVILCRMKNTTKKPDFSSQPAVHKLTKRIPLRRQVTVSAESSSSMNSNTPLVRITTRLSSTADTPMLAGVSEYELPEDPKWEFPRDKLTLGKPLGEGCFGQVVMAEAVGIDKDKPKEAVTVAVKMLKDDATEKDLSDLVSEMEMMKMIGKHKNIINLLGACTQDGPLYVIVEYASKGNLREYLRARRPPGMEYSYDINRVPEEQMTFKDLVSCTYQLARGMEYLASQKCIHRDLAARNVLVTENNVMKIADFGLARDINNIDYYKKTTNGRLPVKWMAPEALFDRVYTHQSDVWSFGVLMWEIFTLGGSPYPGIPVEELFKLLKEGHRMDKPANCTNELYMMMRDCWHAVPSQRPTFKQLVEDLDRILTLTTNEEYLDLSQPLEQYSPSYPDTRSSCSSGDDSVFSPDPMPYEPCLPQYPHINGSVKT

B1: human scFv clone 6, soluble (scFv)
scFv: QSVLTQPPSVSAAPGQKVTISCSGSSSNIGNNYVSWYQQLPGTAPKLLIYDNNKRPSGIPDRFSDSKSGTSATLGITGLQTGDEADYYCGTWDSSLSAVVFGGGTKLTVLGSGGSTITSYNVYYTKLSSSGTEVQLVQSGAEVKKPGSSVKVSCKASGGTFSSYAISWVRQAPGQGLEWMGRIIPILGIANYAQKFQGRVTITADKSTSTAYMELSSLRSEDTAVYYCARDPLLWSYFDYWGQGTLVTVSS
notes: Tags are not described; also called scFv-6; Atto-HuMab-06
B2: human scFv clone 6, phage-displayed (scFv)
scFv: QSVLTQPPSVSAAPGQKVTISCSGSSSNIGNNYVSWYQQLPGTAPKLLIYDNNKRPSGIPDRFSDSKSGTSATLGITGLQTGDEADYYCGTWDSSLSAVVFGGGTKLTVLGSGGSTITSYNVYYTKLSSSGTEVQLVQSGAEVKKPGSSVKVSCKASGGTFSSYAISWVRQAPGQGLEWMGRIIPILGIANYAQKFQGRVTITADKSTSTAYMELSSLRSEDTAVYYCARDPLLWSYFDYWGQGTLVTVSS
notes: also called scFv-6; Atto-HuMab-06
B3: soluble FGFR2 IIIc-Fc fusion protein (Fc fusion)
chain: RPSFSLVEDTTLEPEGAPYWTNTEKMEKRLHAVPAANTVKFRCPAGGNPMPTMRWLKNGKEFKQEHRIGGYKVRNQHWSLIMESVVPSDKGNYTCVVENEYGSINHTYHLDVVERSPHRPILQAGLPANASTVVGGDVEFVCKVYSDAQPHIQWIKHVEKNGSKYGPDGLPYLKVLKAAGVNTTDKEIEVLYIRNVTFEDAGEYTCLAGNSIGISFHSAWLTVLPAPGREKEITASPDYLERSDKTHTCPPCPAPELLGGPSVFLFPPKPKDTLYITREPEVTCVVVDVSHEDPEVKFNWYVDGVEVHNAKTKPREEQYNSTYRVVSVLTVLHQDWLNGKEYKCKVSNKALPAPIEKTISKAKGQPREPQVYTLPPSREEMTKNQVSLTCLVKGFYPSDIAVEWESNGQPENNYKTTPPVLDSDGSFFLYSKLTVDKSRWQQGNVFSCSVMHEALKFHYTQKSLSLSPGK
notes: Extracellular domain of human FGFR2 beta (IIIc), aa 1-262, Arg-Ser linker, human IgG1 Fc; signal peptide 1-21 left out; also called FGFR2 beta-ECD; FGFR2c beta-EDC
B4: dcFv-8 (Fc-fusion of human scFv Clone 8) (Fc fusion)
chain: QSVLTQPPSVSAAPGQKVTISCSGSSSNIGNNYVSWYQQLPGTAPKLLIYDNNKRPSGIPDRFSGSKSGTSATLAISGLQSEDEADYYCAAWDDSLNGVVFGGGTKLTVLGSGGSTITSYNVYYTKLSSSGTQVQLVQSGAEVKKPGSSVKVSCKASGGTFSSYAISWVRQAPGQGLEWMGRIIPIFGTANYAQKFQGRVTITADESTSTAYMELNSLRSEDTAVYYCARDRWDWNDAFDIWGQGTMVTVSS
notes: Bivalent fusion construct to human IgG Fc; also called clone dcFv-8; not shown: human IgG1 Fc of vector pFUSE-hIgG1e2-Fc2(IL2ss) (Invivogen)
B5: human scFv clone 8, soluble (scFv)
scFv: QSVLTQPPSVSAAPGQKVTISCSGSSSNIGNNYVSWYQQLPGTAPKLLIYDNNKRPSGIPDRFSGSKSGTSATLAISGLQSEDEADYYCAAWDDSLNGVVFGGGTKLTVLGSGGSTITSYNVYYTKLSSSGTQVQLVQSGAEVKKPGSSVKVSCKASGGTFSSYAISWVRQAPGQGLEWMGRIIPIFGTANYAQKFQGRVTITADESTSTAYMELNSLRSEDTAVYYCARDRWDWNDAFDIWGQGTMVTVSS
notes: Tags are not described; also called scFv-8; Atto-HuMab-08

Tests used:
FGFR2 IIIb-Fc [1] = target: T1, FGFR2 IIIb-Fc; assay: ELISA: soluble scFv on coated protein (2 ug/ml)
[2] = target: B3; assay: ELISA: soluble scFv on coated protein (2 ug/ml)
human ovalbumin (OA) [3] = target: human ovalbumin (OA) (human); assay: ELISA: soluble scFv on coated protein (2 ug/ml)
human ovalbumin (OA) [4] = target: human ovalbumin (OA) (human); assay: phage ELISA on coated protein
human ferritin (Fer) [5] = target: T5, human ferritin (Fer) (human, UniProt P02794 2-183; P02792 2-175, Natural ferritin is a 24-subunit shell of H and L chains in a tissue-dependent ratio, with an iron core. The letters carry one copy of each subunit.); assay: phage ELISA on coated protein
T5 construct: also called Feritin

[6] = target: T2, 128AA-mFc (128-amino acid loop-3 …); assay: phage ELISA on coated protein
human ferritin (Fer) [7] = target: T5, human ferritin (Fer); assay: phage ELISA on coated protein; remark: listed apart in the source
[8] = target: T6, dcFv-01 (Fc-fusion of human scFv Clone 1) (human); assay: competition ELISA: antibody pre-incubated with FGFR2IIIc-Fc, then added to ligand-coated plate (legend paragraph 175: FGF8; paragraph 640: FGF2); bound receptor detected
T6 construct: scFv-1 fragment fused to the N-terminus of human IgG1 Fc; bivalent; also called dcFv-1; clone dcFv-1; not shown: human IgG1 Fc of vector pFUSE-hIgG1e2-Fc2(IL2ss) (Invivogen)

FGF8b = target: T3, FGF8b; assay: ELISA: receptor Fc fusion (4 ug/ml) on coated FGF8b, anti-human IgG Fc-HRP
[9] = target: B3; assay: competition ELISA: antibody pre-incubated with FGFR2IIIc-Fc, then added to ligand-coated plate (legend paragraph 175: FGF8; paragraph 640: FGF2); bound receptor detected
[10] = target: T4, Flag-FGFR2-IIIb expressed on CHO cells; assay: immunocytochemical staining of CHO cells transiently expressing FGFR2IIIb
FGFR2 IIIb-Fc [11] = target: T1, FGFR2 IIIb-Fc; assay: ELISA with soluble scFv, plate coated with FGFR2 IIIb Fc fusion (whole extracellular domain)

Row | Binder | OD (450 nm) (FGFR2 IIIb-Fc [1]) | OD (450 nm) [2] | OD (450 nm) (human ovalbumin (OA) [3]) | binding result [10] | further results
1 | B1 | 0.012 | 0.571 | 0.015 |  | 
2 | B2 |  |  |  |  | OD (450 nm) (human ovalbumin (OA) [4]): 0.018; OD (450 nm) (human ferritin (Fer) [5]): 0.006; OD (450 nm) [6]: 0.106; binding result (human ferritin (Fer) [7]): no binding
3 | B3 |  |  |  |  | binding result [8]: binds; binding result (FGF8b): binds
4 | B4 |  |  |  | no binding | IC50 (read off the curve) [9]: ~0.3 nM
5 | B5 | 0.003 | 0.8 | 0.028 | no binding | binding result (FGFR2 IIIb-Fc [11]): no binding
